Experimental data reported in publication PMC9024677.

Columns and labels:
[1] = target: bovine cardiac α-actin (bovine) (UniProt Q3ZC07); experiment: pyrene-actin polymerization assay; 5 μM actin with pyrene-labelled skeletal muscle actin (20:1) in G-buffer; polymerization started with 2 mM MgCl2 (and 0.05 M KCl); fluorescence increase followed over time
[2] = target: bovine cardiac α-actin (bovine) (UniProt Q3ZC07); experiment: other fluorescence titration; critical concentration of polymerization (monomer to filament): 0.1 to 10 μM c-actin with 5% pyrene-actin, 2 mM MgCl2 and 0.05 M KCl overnight; steady-state fluorescence against actin concentration
[3] = target: human cardiac α-actin mutant p.A295S (human); experiment: pyrene-actin polymerization assay; 5 μM actin with pyrene-labelled skeletal muscle actin (20:1) in G-buffer; polymerization started with 2 mM MgCl2 (and 0.05 M KCl); fluorescence increase followed over time
[4] = target: human cardiac α-actin mutant p.A295S (human); experiment: other fluorescence titration; critical concentration of polymerization (monomer to filament): 0.1 to 10 μM c-actin with 5% pyrene-actin, 2 mM MgCl2 and 0.05 M KCl overnight; steady-state fluorescence against actin concentration
[5] = target: deoxyribonuclease I (DNase I) (bovine) (UniProt P00639)
[6] = target: human cardiac α-actin mutant p.E361G (human); experiment: pyrene-actin polymerization assay; 5 μM actin with pyrene-labelled skeletal muscle actin (20:1) in G-buffer; polymerization started with 2 mM MgCl2 (and 0.05 M KCl); fluorescence increase followed over time
[7] = target: human cardiac α-actin mutant p.E361G (human); experiment: other fluorescence titration; critical concentration of polymerization (monomer to filament): 0.1 to 10 μM c-actin with 5% pyrene-actin, 2 mM MgCl2 and 0.05 M KCl overnight; steady-state fluorescence against actin concentration
[8] = target: human cardiac α-actin mutant p.R312H (human); experiment: pyrene-actin polymerization assay; 5 μM actin with pyrene-labelled skeletal muscle actin (20:1) in G-buffer; polymerization started with 2 mM MgCl2 (and 0.05 M KCl); fluorescence increase followed over time
[9] = target: human cardiac α-actin mutant p.R312H (human); experiment: other fluorescence titration; critical concentration of polymerization (monomer to filament): 0.1 to 10 μM c-actin with 5% pyrene-actin, 2 mM MgCl2 and 0.05 M KCl overnight; steady-state fluorescence against actin concentration
[10] = target: human cardiac α-actin variant p.R312K (human); experiment: pyrene-actin polymerization assay; 5 μM actin with pyrene-labelled skeletal muscle actin (20:1) in G-buffer; polymerization started with 2 mM MgCl2 (and 0.05 M KCl); fluorescence increase followed over time
[11] = target: human cardiac α-actin variant p.R312K (human); experiment: other fluorescence titration; critical concentration of polymerization (monomer to filament): 0.1 to 10 μM c-actin with 5% pyrene-actin, 2 mM MgCl2 and 0.05 M KCl overnight; steady-state fluorescence against actin concentration
[12] = target: human wild type cardiac α-actin (recombinant) (human) (UniProt P68032); experiment: pyrene-actin polymerization assay; 5 μM actin with pyrene-labelled skeletal muscle actin (20:1) in G-buffer; polymerization started with 2 mM MgCl2 (and 0.05 M KCl); fluorescence increase followed over time
[13] = target: human wild type cardiac α-actin (recombinant) (human) (UniProt P68032); experiment: other fluorescence titration; critical concentration of polymerization (monomer to filament): 0.1 to 10 μM c-actin with 5% pyrene-actin, 2 mM MgCl2 and 0.05 M KCl overnight; steady-state fluorescence against actin concentration
[14] = target: human cardiac α-actin mutant p.E361G (human)
[15] = target: human wild type cardiac α-actin (recombinant) (human) (UniProt P68032)
[16] = target: human cardiac α-actin mutant p.R312H (human)
[17] = target: bovine cardiac α-actin (bovine) (UniProt Q3ZC07)
[18] = target: human cardiac α-actin mutant p.A295S (human)

Chain of deoxyribonuclease I (DNase I) (bovine) (P00639 23-282): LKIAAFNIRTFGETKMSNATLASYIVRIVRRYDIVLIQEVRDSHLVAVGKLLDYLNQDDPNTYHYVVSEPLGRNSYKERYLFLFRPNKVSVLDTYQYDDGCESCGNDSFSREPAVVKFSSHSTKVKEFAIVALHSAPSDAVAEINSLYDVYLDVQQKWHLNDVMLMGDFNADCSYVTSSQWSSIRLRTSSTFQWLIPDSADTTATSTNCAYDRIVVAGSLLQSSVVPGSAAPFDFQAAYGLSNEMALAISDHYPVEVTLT

“bovine cardiac α-actin (from UniProt Q3ZC07 1-377) (natural protein)” was tested. Which half time of polymerization (t 1/2) [1] did it give?
Its half time of polymerization (t 1/2) is 2.7 min.

And the critical concentration of polymerization (Cc) [2]?
The critical concentration of polymerization (Cc) was 0.21 µM.

For “human cardiac α-actin mutant p.A295S (natural protein)”, which half time of polymerization (t 1/2) [3] is on record?
The half time of polymerization (t 1/2) was 8.5 min.

And the critical concentration of polymerization (Cc) [4]?
The critical concentration of polymerization (Cc) was 0.4 µM.

And the inhibition of DNase I activity (hyperchromicity assay), 3.2 μM DNase I pre-incubated with zero to 6.4 μM G-actin; inhibitory capacity against wt c-α-actin [5]?
Its inhibition of DNase I activity (hyperchromicity assay), 3.2 μM DNase I pre-incubated with zero to 6.4 μM G-actin; inhibitory capacity against wt c-α-actin is 33%.

For “human cardiac α-actin mutant p.E361G (natural protein)”, which half time of polymerization (t 1/2) [6] is on record?
Its half time of polymerization (t 1/2) is 1.6 min.

What about the critical concentration of polymerization (Cc) [7] of the same substance?
Its critical concentration of polymerization (Cc) is 0.2 µM.

For “human cardiac α-actin mutant p.R312H (natural protein)”, which half time of polymerization (t 1/2) [8] is on record?
The half time of polymerization (t 1/2) was 10.8 min.

And the critical concentration of polymerization (Cc) [9]?
The critical concentration of polymerization (Cc) was 0.7 µM.

“human cardiac α-actin variant p.R312K (natural protein)” was tested. Which half time of polymerization (t 1/2) [10] did it give?
The half time of polymerization (t 1/2) was 3.08 min.

What about the critical concentration of polymerization (Cc) [11] of the same substance?
Its critical concentration of polymerization (Cc) is 0.21 µM.

With “human wild type cardiac α-actin (recombinant) (from UniProt P68032 1-377) (natural protein)” as the substance, how does the half time of polymerization (t 1/2) [12] read?
Its half time of polymerization (t 1/2) is 2.5 min.

What about the critical concentration of polymerization (Cc) [13] of the same substance?
Its critical concentration of polymerization (Cc) is 0.2 µM.

What about the inhibition of DNase I activity (hyperchromicity assay), 3.2 μM DNase I pre-incubated with zero to 6.4 μM G-actin; concentration for complete inhibition against skeletal muscle actin ([5]; scale: fold higher concentration than skeletal muscle actin) of the same substance?
The inhibition of DNase I activity (hyperchromicity assay), 3.2 μM DNase I pre-incubated with zero to 6.4 μM G-actin; concentration for complete inhibition against skeletal muscle actin was 3.

What does the source list for “rabbit skeletal muscle myosin subfragment-1 (domain or fragment)”?
apparent KM of the myosin-S1 ATPase stimulation by F-c-actin (double reciprocal plot), pCa 4.3, without cTm/cTn [14]: 0.075 µM; apparent KM of the myosin-S1 ATPase stimulation by F-c-actin decorated with cTm/cTn (6:1:1), pCa 4.3 [14]: 0.173 µM; apparent KM of the myosin-S1 ATPase stimulation by F-c-actin (double reciprocal plot), pCa 4.3, without cTm/cTn [15]: 0.165 µM; apparent KM of the myosin-S1 ATPase stimulation by F-c-actin decorated with cTm/cTn (6:1:1), pCa 4.3 [15]: 0.217 µM; apparent KM of the myosin-S1 ATPase stimulation by F-c-actin (double reciprocal plot), pCa 4.3, without cTm/cTn [16]: 0.096 µM; apparent KM of the myosin-S1 ATPase stimulation by F-c-actin decorated with cTm/cTn (6:1:1), pCa 4.3 [16]: 0.0243 µM; apparent KM of the myosin-S1 ATPase stimulation by F-c-actin (double reciprocal plot), pCa 4.3, without cTm/cTn [17]: 0.081 µM; apparent KM of the myosin-S1 ATPase stimulation by F-c-actin (double reciprocal plot), pCa 4.3, without cTm/cTn [18]: 0.966 µM; apparent KM of the myosin-S1 ATPase stimulation by F-c-actin decorated with cTm/cTn (6:1:1), pCa 4.3 [18]: 3.31 µM
